Test system: mutant form of α-Gal A expressed in HEK-293 cells
Test: HEK assay (GLP HEK / Migalastat Amenability Assay): α-Gal A activity in lysates of transiently transfected HEK-293 cells incubated with or without 10 μM migalastat
Format: cell-based, human
Settings: for Absolute increase (% WT): 10 μM migalastat versus baseline; for Relative increase: 10 μM migalastat α-Gal A activity relative to baseline; for 10 μM migalastat α-Gal A activity (% WT): 5 days; for 10 μM migalastat α-Gal A activity (% WT) / Baseline α-Gal A activity (% WT): percentage of baseline wild-type α-Gal A activity; for 10 μM migalastat α-Gal A activity (% WT) / Baseline α-Gal A activity (% WT) / Baseline α-Gal A activity / 10 μM migalastat α-Gal A activity: mean ± SEM; for Baseline α-Gal A activity (% WT): absence of migalastat; for Baseline α-Gal A activity / 10 μM migalastat α-Gal A activity: lysates of HEK-293 cells transfected with the mutant form; for Baseline α-Gal A activity: incubated 5 days in the absence of migalastat; for 10 μM migalastat α-Gal A activity: incubated 5 days with 10 μM migalastat
Outline: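 Activity reported as 4-MU released (nmol/mg/hr), mean±SEM, from lysates of transiently transfected HEK-293 cells expressing mutant α-Gal A, cultured with or without 10 μM migalastat.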

B1: I133L (protein)
chain: MQLRNPELHLGCALALRFLALVSWDIPGARALDNGLARTPTMGWLHWERFMCNLDCQEEPDSCISEKLFMEMAELMVSEGWKDAGYEYLCIDDCWMAPQRDSEGRLQADPQRFPHGIRQLANYVHSKGLKLGLYADVGNKTCAGFPGSFGYYDIDAQTFADWGVDLLKFDGCYCDSLENLADGYKHMSLALNRTGRSIVYSCEWPLYMWPFQKPNYTEIRQYCNHWRNFADIDDSWKSIKSILDWTSFNQERIVDVAGPGGWNDPDMLVIGNFGLSWNQQVTQMALWAIMAAPLFMSNDLRHISPQAKALLQDKDVIAINQDPLGKQGYQLRQGDNFEVWERPLSGLAWAVAMINRQEIGGPRSYTIAVASLGKGVACNPACFITQLLPVKRKLGFYEWTSRLRSHINPTGTVLLQLENTMQMSLKDLL
B1 was tested, and the “Absolute increase (% WT)” value was 17.5 % WT, the Relative increase was 1.3 and the “10 μM migalastat α-Gal A activity (% WT)” value was 78.2 ± 3.1 % WT. The “Baseline α-Gal A activity (% WT)” value was 60.7 ± 2.7 % WT, the “Baseline α-Gal A activity” value was 24431 ± 1181 nmol/mg/h and the “10 μM migalastat α-Gal A activity” value was 31550 ± 1420 nmol/mg/h.

B2: D136A (protein)
chain: MQLRNPELHLGCALALRFLALVSWDIPGARALDNGLARTPTMGWLHWERFMCNLDCQEEPDSCISEKLFMEMAELMVSEGWKDAGYEYLCIDDCWMAPQRDSEGRLQADPQRFPHGIRQLANYVHSKGLKLGIYAAVGNKTCAGFPGSFGYYDIDAQTFADWGVDLLKFDGCYCDSLENLADGYKHMSLALNRTGRSIVYSCEWPLYMWPFQKPNYTEIRQYCNHWRNFADIDDSWKSIKSILDWTSFNQERIVDVAGPGGWNDPDMLVIGNFGLSWNQQVTQMALWAIMAAPLFMSNDLRHISPQAKALLQDKDVIAINQDPLGKQGYQLRQGDNFEVWERPLSGLAWAVAMINRQEIGGPRSYTIAVASLGKGVACNPACFITQLLPVKRKLGFYEWTSRLRSHINPTGTVLLQLENTMQMSLKDLL
With B2 the “Absolute increase (% WT)” value was 9.4 % WT, the Relative increase was 1.5 and the “10 μM migalastat α-Gal A activity (% WT)” value was 29.8 ± 1 % WT. The “Baseline α-Gal A activity (% WT)” value was 20.4 ± 1.1 % WT, the “Baseline α-Gal A activity” value was 8054 ± 482 nmol/mg/h and the “10 μM migalastat α-Gal A activity” value was 12166 ± 927 nmol/mg/h.

B3: A135E (protein)
chain: MQLRNPELHLGCALALRFLALVSWDIPGARALDNGLARTPTMGWLHWERFMCNLDCQEEPDSCISEKLFMEMAELMVSEGWKDAGYEYLCIDDCWMAPQRDSEGRLQADPQRFPHGIRQLANYVHSKGLKLGIYEDVGNKTCAGFPGSFGYYDIDAQTFADWGVDLLKFDGCYCDSLENLADGYKHMSLALNRTGRSIVYSCEWPLYMWPFQKPNYTEIRQYCNHWRNFADIDDSWKSIKSILDWTSFNQERIVDVAGPGGWNDPDMLVIGNFGLSWNQQVTQMALWAIMAAPLFMSNDLRHISPQAKALLQDKDVIAINQDPLGKQGYQLRQGDNFEVWERPLSGLAWAVAMINRQEIGGPRSYTIAVASLGKGVACNPACFITQLLPVKRKLGFYEWTSRLRSHINPTGTVLLQLENTMQMSLKDLL
In the case of B3, the “Absolute increase (% WT)” value is reported as 7.4 % WT, the Relative increase is reported as 1.3 and the “10 μM migalastat α-Gal A activity (% WT)” value is reported as 32.5 ± 1.6 % WT. For the same molecule, the “Baseline α-Gal A activity (% WT)” value was 25.1 ± 1.5 % WT, the “Baseline α-Gal A activity” value was 10143 ± 752 nmol/mg/h and the “10 μM migalastat α-Gal A activity” value was 12954 ± 678 nmol/mg/h.

B4: I133V (protein)
chain: MQLRNPELHLGCALALRFLALVSWDIPGARALDNGLARTPTMGWLHWERFMCNLDCQEEPDSCISEKLFMEMAELMVSEGWKDAGYEYLCIDDCWMAPQRDSEGRLQADPQRFPHGIRQLANYVHSKGLKLGVYADVGNKTCAGFPGSFGYYDIDAQTFADWGVDLLKFDGCYCDSLENLADGYKHMSLALNRTGRSIVYSCEWPLYMWPFQKPNYTEIRQYCNHWRNFADIDDSWKSIKSILDWTSFNQERIVDVAGPGGWNDPDMLVIGNFGLSWNQQVTQMALWAIMAAPLFMSNDLRHISPQAKALLQDKDVIAINQDPLGKQGYQLRQGDNFEVWERPLSGLAWAVAMINRQEIGGPRSYTIAVASLGKGVACNPACFITQLLPVKRKLGFYEWTSRLRSHINPTGTVLLQLENTMQMSLKDLL
B4 was tested, and the “Absolute increase (% WT)” value was 21.9 % WT, the Relative increase was 1.2 and the “10 μM migalastat α-Gal A activity (% WT)” value was 118.1 ± 5.1 % WT. The “Baseline α-Gal A activity (% WT)” value was 96.2 ± 3.7 % WT, the “Baseline α-Gal A activity” value was 38738 ± 1624 nmol/mg/h and the “10 μM migalastat α-Gal A activity” value was 47299 ± 1885 nmol/mg/h.

B5: A135S (protein)
chain: MQLRNPELHLGCALALRFLALVSWDIPGARALDNGLARTPTMGWLHWERFMCNLDCQEEPDSCISEKLFMEMAELMVSEGWKDAGYEYLCIDDCWMAPQRDSEGRLQADPQRFPHGIRQLANYVHSKGLKLGIYSDVGNKTCAGFPGSFGYYDIDAQTFADWGVDLLKFDGCYCDSLENLADGYKHMSLALNRTGRSIVYSCEWPLYMWPFQKPNYTEIRQYCNHWRNFADIDDSWKSIKSILDWTSFNQERIVDVAGPGGWNDPDMLVIGNFGLSWNQQVTQMALWAIMAAPLFMSNDLRHISPQAKALLQDKDVIAINQDPLGKQGYQLRQGDNFEVWERPLSGLAWAVAMINRQEIGGPRSYTIAVASLGKGVACNPACFITQLLPVKRKLGFYEWTSRLRSHINPTGTVLLQLENTMQMSLKDLL
For B5, the “Absolute increase (% WT)” value was 12.2 % WT, the Relative increase was 1.3 and the “10 μM migalastat α-Gal A activity (% WT)” value was 57.9 ± 3.2 % WT. The “Baseline α-Gal A activity (% WT)” value was 45.6 ± 2.9 % WT, the “Baseline α-Gal A activity” value was 16777 ± 897 nmol/mg/h and the “10 μM migalastat α-Gal A activity” value was 21383 ± 1125 nmol/mg/h.

B6: I133T (protein)
chain: MQLRNPELHLGCALALRFLALVSWDIPGARALDNGLARTPTMGWLHWERFMCNLDCQEEPDSCISEKLFMEMAELMVSEGWKDAGYEYLCIDDCWMAPQRDSEGRLQADPQRFPHGIRQLANYVHSKGLKLGTYADVGNKTCAGFPGSFGYYDIDAQTFADWGVDLLKFDGCYCDSLENLADGYKHMSLALNRTGRSIVYSCEWPLYMWPFQKPNYTEIRQYCNHWRNFADIDDSWKSIKSILDWTSFNQERIVDVAGPGGWNDPDMLVIGNFGLSWNQQVTQMALWAIMAAPLFMSNDLRHISPQAKALLQDKDVIAINQDPLGKQGYQLRQGDNFEVWERPLSGLAWAVAMINRQEIGGPRSYTIAVASLGKGVACNPACFITQLLPVKRKLGFYEWTSRLRSHINPTGTVLLQLENTMQMSLKDLL
In the case of B6, the “Absolute increase (% WT)” value is reported as 15.0 % WT, the Relative increase is reported as 2.4 and the “10 μM migalastat α-Gal A activity (% WT)” value is reported as 25.8 ± 1.1 % WT. For the same molecule, the “Baseline α-Gal A activity (% WT)” value was 10.8 ± 1 % WT, the “Baseline α-Gal A activity” value was 4362 ± 397 nmol/mg/h and the “10 μM migalastat α-Gal A activity” value was 10255 ± 335 nmol/mg/h.

B7: A135G (protein)
chain: MQLRNPELHLGCALALRFLALVSWDIPGARALDNGLARTPTMGWLHWERFMCNLDCQEEPDSCISEKLFMEMAELMVSEGWKDAGYEYLCIDDCWMAPQRDSEGRLQADPQRFPHGIRQLANYVHSKGLKLGIYGDVGNKTCAGFPGSFGYYDIDAQTFADWGVDLLKFDGCYCDSLENLADGYKHMSLALNRTGRSIVYSCEWPLYMWPFQKPNYTEIRQYCNHWRNFADIDDSWKSIKSILDWTSFNQERIVDVAGPGGWNDPDMLVIGNFGLSWNQQVTQMALWAIMAAPLFMSNDLRHISPQAKALLQDKDVIAINQDPLGKQGYQLRQGDNFEVWERPLSGLAWAVAMINRQEIGGPRSYTIAVASLGKGVACNPACFITQLLPVKRKLGFYEWTSRLRSHINPTGTVLLQLENTMQMSLKDLL
For B7, the “Absolute increase (% WT)” value was 16.1 % WT, the Relative increase was 1.2 and the “10 μM migalastat α-Gal A activity (% WT)” value was 90 ± 3.6 % WT. For the same molecule, the “Baseline α-Gal A activity (% WT)” value was 73.9 ± 3.8 % WT, the “Baseline α-Gal A activity” value was 29959 ± 2193 nmol/mg/h and the “10 μM migalastat α-Gal A activity” value was 36552 ± 2309 nmol/mg/h.

B8: D136N (protein)
chain: MQLRNPELHLGCALALRFLALVSWDIPGARALDNGLARTPTMGWLHWERFMCNLDCQEEPDSCISEKLFMEMAELMVSEGWKDAGYEYLCIDDCWMAPQRDSEGRLQADPQRFPHGIRQLANYVHSKGLKLGIYANVGNKTCAGFPGSFGYYDIDAQTFADWGVDLLKFDGCYCDSLENLADGYKHMSLALNRTGRSIVYSCEWPLYMWPFQKPNYTEIRQYCNHWRNFADIDDSWKSIKSILDWTSFNQERIVDVAGPGGWNDPDMLVIGNFGLSWNQQVTQMALWAIMAAPLFMSNDLRHISPQAKALLQDKDVIAINQDPLGKQGYQLRQGDNFEVWERPLSGLAWAVAMINRQEIGGPRSYTIAVASLGKGVACNPACFITQLLPVKRKLGFYEWTSRLRSHINPTGTVLLQLENTMQMSLKDLL
B8 was tested, and the “Absolute increase (% WT)” value was 11.2 % WT, the Relative increase was 1.9 and the “10 μM migalastat α-Gal A activity (% WT)” value was 24.2 ± 0.9 % WT. For the same molecule, the “Baseline α-Gal A activity (% WT)” value was 13 ± 0.8 % WT, the “Baseline α-Gal A activity” value was 5079 ± 248 nmol/mg/h and the “10 μM migalastat α-Gal A activity” value was 9827 ± 630 nmol/mg/h.

B9: A135T (protein)
chain: MQLRNPELHLGCALALRFLALVSWDIPGARALDNGLARTPTMGWLHWERFMCNLDCQEEPDSCISEKLFMEMAELMVSEGWKDAGYEYLCIDDCWMAPQRDSEGRLQADPQRFPHGIRQLANYVHSKGLKLGIYTDVGNKTCAGFPGSFGYYDIDAQTFADWGVDLLKFDGCYCDSLENLADGYKHMSLALNRTGRSIVYSCEWPLYMWPFQKPNYTEIRQYCNHWRNFADIDDSWKSIKSILDWTSFNQERIVDVAGPGGWNDPDMLVIGNFGLSWNQQVTQMALWAIMAAPLFMSNDLRHISPQAKALLQDKDVIAINQDPLGKQGYQLRQGDNFEVWERPLSGLAWAVAMINRQEIGGPRSYTIAVASLGKGVACNPACFITQLLPVKRKLGFYEWTSRLRSHINPTGTVLLQLENTMQMSLKDLL
B9 was tested, and the “Absolute increase (% WT)” value was 23.2 % WT, the Relative increase was 2.4 and the “10 μM migalastat α-Gal A activity (% WT)” value was 40.5 ± 3.4 % WT. For the same molecule, the “Baseline α-Gal A activity (% WT)” value was 17.4 ± 1.3 % WT, the “Baseline α-Gal A activity” value was 7906 ± 694 nmol/mg/h and the “10 μM migalastat α-Gal A activity” value was 18890 ± 2092 nmol/mg/h.

Reference: patent publication US11833164B2, “Methods of treating Fabry disease in patients having a mutation in the GLA gene” (Amicus Therapeutics, Inc., priority 2019, dated 2023)
